Measured values published in patent publication JP2018087218A (dated 2018).

Biological target: T1, ヒトCD38 (SPRで注入されたCD38) (human, UniProt P28907 43-300)
T1 sequence: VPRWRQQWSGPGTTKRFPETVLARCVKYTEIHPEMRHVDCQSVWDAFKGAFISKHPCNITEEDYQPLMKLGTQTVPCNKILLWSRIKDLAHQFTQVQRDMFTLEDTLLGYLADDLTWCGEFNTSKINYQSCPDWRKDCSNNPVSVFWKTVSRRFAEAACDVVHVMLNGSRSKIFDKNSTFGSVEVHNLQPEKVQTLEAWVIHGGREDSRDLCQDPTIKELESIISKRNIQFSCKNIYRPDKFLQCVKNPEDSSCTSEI
Test: SPR (Biacore), antibody captured on protein A, CD38 injected

B1: X02.1 (antibody, human IgG4 S228P, lambda, V domains shown)
VH: QLQLQESGPGLVKPSETLSLTCTVSGGSISSSSYYWSWIRQHPGKGLEWIGYIYYSGSTNYNPSLKSRVTISVDTLKNQISLRLTSVTAADTAVYYCARVGGAGGWPMDVWGQGTTVTVSS
VL: QAVLTQPASLSASPGESARLTCTLPSDINVRYYNIYWYQQKPGSPPRYLLYYYSDSHKGQGSGVPSRFSGSKDVSTNSGILLISGLQSEDEADYYCMTWSSNGSGVFGGGTQLTVLG
notes: X02.1 has no IFN fusion; also called 親抗体X02.1; A02.1 (X355/02-HC-L0-IFN-アルファ(A145D)IgG4) の非融合抗体
Kd: 0.378 to 27 nM
